Where two headings read alike, the source gives them in different places.

Series [1] concerns the target T1, hOGG1 K249Q (catalytically inactive) (Homo sapiens, UniProt O15527 1-345, K249Q). The series is described as follows: EMSA.
The target in series [2] is T1, hOGG1 K249Q (catalytically inactive). The series is described as follows: EMSA. The source holds these as a separate data set.

T1 sequence (O15527 whole entry K249Q): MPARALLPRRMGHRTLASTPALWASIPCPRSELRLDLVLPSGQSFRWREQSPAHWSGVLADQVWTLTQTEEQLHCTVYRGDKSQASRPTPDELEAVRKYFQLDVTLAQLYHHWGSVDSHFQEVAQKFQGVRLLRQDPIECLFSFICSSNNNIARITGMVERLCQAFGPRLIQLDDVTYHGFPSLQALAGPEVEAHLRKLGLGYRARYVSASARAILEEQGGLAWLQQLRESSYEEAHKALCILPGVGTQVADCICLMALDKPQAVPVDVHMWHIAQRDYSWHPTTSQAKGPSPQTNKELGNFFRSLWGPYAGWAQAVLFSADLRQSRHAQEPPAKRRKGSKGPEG

B1: dsDNA (145 bp 601, unmodified) (dsDNA)
DNA 1: ATCGATGTATATATCTGACACGTGCCTGGAGACTAGGGAGTAATCCCCTTGGCGGTTAAAACGCGGGGGACAGCGCGTACGTGCGTTTGAGCGGTGCTAGAGCTGTCTACGACCAATTGAGCGGCCTCGGCACCGGGATTCTGAT
DNA 2: ATCAGAATCCCGGTGCCGAGGCCGCTCAATTGGTCGTAGACAGCTCTAGCACCGCTCAAACGCACGTACGCGCTGTCCCCCGCGTTTTAACCGCCAAGGGGATTACTCCCTAGTCTCCAGGCACGTGTCAGATATATACATCGAT
Take B1: the equilibrium dissociation constant (Kd) in series [1] is 1310 ± 200 nM.

B2: dsDNA-8-oxodGuo-73 (dsDNA)
DNA 1: ATCGATGTATATATCTGACACGTGCCTGGAGACTAGGGAGTAATCCCCTTGGCGGTTAAAACGCGGGGGACAGCGCGTACGTGCGTTTGAGCGGTGCTAGAGCTGTCTACGACCAATTGAGCGGCCTCGGCACCGGGATTCTGAT
DNA 2: ATCAGAATCCCGGTGCCGAGGCCGCTCAATTGGTCGTAGACAGCTCTAGCACCGCTCAAACGCACGTACGCGCTGTCCCCCGCGTTTTAACCGCCAAGGGGATTACTCCCTAGTCTCCAGGCACGTGTCAGATATATACATCGAT
modifications: 8-oxodGuo at G73 of strand 1
Turning to B2, in series [2], the dissociation constant (Kd) is 240 ± 10 nM.

B3: dsDNA-8-oxodGuo-89 (dsDNA)
DNA 1: ATCGATGTATATATCTGACACGTGCCTGGAGACTAGGGAGTAATCCCCTTGGCGGTTAAAACGCGGGGGACAGCGCGTACGTGCGTTTGAGCGGTGCTAGAGCTGTCTACGACCAATTGAGCGGCCTCGGCACCGGGATTCTGAT
DNA 2: ATCAGAATCCCGGTGCCGAGGCCGCTCAATTGGTCGTAGACAGCTCTAGCACCGCTCAAACGCACGTACGCGCTGTCCCCCGCGTTTTAACCGCCAAGGGGATTACTCCCTAGTCTCCAGGCACGTGTCAGATATATACATCGAT
modifications: 8-oxodGuo at G89 of strand 1
For B3, in series [2], the Kd amounted to 300 ± 10 nM.

B4: dsDNA-8-oxodGuo-137 (dsDNA)
DNA 1: ATCGATGTATATATCTGACACGTGCCTGGAGACTAGGGAGTAATCCCCTTGGCGGTTAAAACGCGGGGGACAGCGCGTACGTGCGTTTGAGCGGTGCTAGAGCTGTCTACGACCAATTGAGCGGCCTCGGCACCGGGATTCTGAT
DNA 2: ATCAGAATCCCGGTGCCGAGGCCGCTCAATTGGTCGTAGACAGCTCTAGCACCGCTCAAACGCACGTACGCGCTGTCCCCCGCGTTTTAACCGCCAAGGGGATTACTCCCTAGTCTCCAGGCACGTGTCAGATATATACATCGAT
modifications: 8-oxodGuo at G137 of strand 1
In turn, B4 showed a Kd in series [2] of 420 ± 20 nM. This Kd and that of the molecule before are within 1.5-fold of each other.

The values are drawn from PMC11526172.
